Results on 1 substance are retold here after article PMC11032371.

Experiment [1] deals with K63-diUb (UniProt P0CG48). As to the kind of experiment: ITC; 293 K; 50 mM HEPES pH 7.4, 50 mM NaCl, 0.5 mM TCEP; cell 50–100 μM, syringe usually 10-fold; 20 injections of 2 μl; averages of at least two experiments; which partner was in the syringe not stated.
For experiment [2], the target named is K48-diUb (UniProt P0CG48). The description is as above.

In experiment [1], “N4BP1 (850–893) (from UniProt Q6A037 850-893) (domain or fragment)” yielded a dissociation constant Kd of 16.7 µM, a dH of -5.88 kcal/mol and a stoichiometry N of 1.71. In experiment [2], this substance came in with an equilibrium dissociation constant (Kd) of 47 µM, a dH of -5.87 kcal/mol and a stoichiometry N of 1.29.
